To fix the notation:
B1: endofin 22-mer peptide (first 22 residues of endofin) [human] / His6-HD-PTP_(Bro1) (1-361) [human] (parent complex)
chain 1: MDSYFKAAVSDLDKLLDDFEQN
chain 2: MEAVPRMPMIWLDLKEAGDFHFQPAVKKFVLKNYGENPEAYNEELKKLELLRQNAVRVPRDFEGCSVLRKYLGQLHYLQSRVPMGSGQEAAVPVTWTEIFSGKSVAHEDIKYEQACILYNLGALHSMLGAMDKRVSEEGMKVSCTHFQCAAGAFAYLREHFPQAYSVDMSRQILTLNVNLMLGQAQECLLEKSMLDNRKSFLVARISAQVVDYYKEACRALENPDTASLLGRIQKDWKKLVQMKIYYFAAVAHLHMGKQAEEQQKFGERVAYFQSALDKLNEAIKLAKGQPDTVQDALRFTMDVIGGKYNSAKKDNDFIYHEAVPALDTLQPVKGAPLVKPLPVNPTDPAVTGPDIFAKLV
B2: endofin_(1–84)-strep, in vitro translated [modified: 35S-methionine; 35S-methionine] [human] / His6-HD-PTP_(Bro1-CC) (1-714), bacterially expressed [human] (parent complex)
chain 1: MDSYFKAAVSDLDKLLDDFEQNPDEQDYLQDVQNAYDSNHCSVSSELASSQRTSLLPKDQECVNSCASSETSYGTNESSLNEKT
chain 2: MEAVPRMPMIWLDLKEAGDFHFQPAVKKFVLKNYGENPEAYNEELKKLELLRQNAVRVPRDFEGCSVLRKYLGQLHYLQSRVPMGSGQEAAVPVTWTEIFSGKSVAHEDIKYEQACILYNLGALHSMLGAMDKRVSEEGMKVSCTHFQCAAGAFAYLREHFPQAYSVDMSRQILTLNVNLMLGQAQECLLEKSMLDNRKSFLVARISAQVVDYYKEACRALENPDTASLLGRIQKDWKKLVQMKIYYFAAVAHLHMGKQAEEQQKFGERVAYFQSALDKLNEAIKLAKGQPDTVQDALRFTMDVIGGKYNSAKKDNDFIYHEAVPALDTLQPVKGAPLVKPLPVNPTDPAVTGPDIFAKLVPMAAHEASSLYSEEKAKLLREMMAKIEDKNEVLDQFMDSMQLDPETVDNLDAYSHIPPQLMEKCAALSVRPDTVRNLVQSMQVLSGVFTDVEASLKDIRDLLEEDELLEQKFQEAVGQAGAISITSKAELAEVRREWAKYMEVHEKASFTNSELHRAMNLHVGNLRLLSGPLDQVRAALPTPALSPEDKAVLQNLKRILAKVQEMRDQRVSLEQQLRELIQKDDITASLVTTDHSEMKKLFEEQLKKYDQLKVYLEQNLAAQDRVLCALTEANVQYAAVRRVLSDLDQKWNSTLQTLVASYEAYEDLMKKSQEGRDFYADLESKVAALLERTQSTCQAREAARQQLLDRELKK
B3: HA-HD-PTP_(Bro1-CC) wild-type, expressed in cells [human] / endogenous endofin [human (endogenous in HEK293)] (parent complex)
chain 1: B2 chain 2
chain 2: MDSYFKAAVSDLDKLLDDFEQNPDEQDYLQDVQNAYDSNHCSVSSELASSQRTSLLPKDQECVNSCASSETSYGTNESSLNEKTLKGLTSIQNEKNVTGLDLLSSVDGGTSDEIQPLYMGRCSKPICDLISDMGNLVHATNSEEDIKKLLPDDFKSNADSLIGLDLSSVSDTPCVSSTDHDSDTVREQQNDISSELQNREIGGIKELGIKVDTTLSDSYNYSGTENLKDKKIFNQLESIVDFNMSSALTRQSSKMFHAKDKLQHKSQPCGLLKDVGLVKEEVDVAVITAAECLKEEGKTSALTCSLPKNEDLCLNDSNSRDENFKLPDFSFQEDKTVIKQSAQEDSKSLDLKDNDVIQDSSSALHVSSKDVPSSLSCLPASGSMCGSLIESKARGDFLPQHEHKDNIQDAVTIHEEIQNSVVLGGEPFKENDLLKQEKCKSILLQSLIEGMEDRKIDPDQTVIRAESLDGGDTSSTVVESQEGLSGTHVPESSDCCEGFINTFSSNDMDGQDLDYFNIDEGAKSGPLISDAELDAFLTEQYLQTTNIKSFEENVNDSKSQMNQIDMKGLDDGNINNIYFNAEAGAIGESHGINIICEIVDKQNTIENGLSLGEKSTIPVQQGLPTSKSEITNQLSVSDINSQSVGGARPKQLFSLPSRTRSSKDLNKPDVPDTIESEPSTADTVVPITCAIDSTADPQVSFNSNYIDIESNSEGGSSFVTANEDSVPENTCKEGLVLGQKQPTWVPDSEAPNCMNCQVKFTFTKRRHHCRACGKVFCGVCCNRKCKLQYLEKEARVCVVCYETISKAQAFERMMSPTGSNLKSNHSDECTTVQPPQENQTSSIPSPATLPVSALKQPGVEGLCSKEQKRVWFADGILPNGEVADTTKLSSGSKRCSEDFSPLSPDVPMTVNTVDHSHSTTVEKPNNETGDITRNEIIQSPISQVPSVEKLSMNTGNEGLPTSGSFTLDDDVFAETEEPSSPTGVLVNSNLPIASISDYRLLCDINKYVCNKISLLPNDEDSLPPLLVASGEKGSVPVVEEHPSHEQIILLLEGESFHPVTFVLNANLLVNVKFIFYSSDKYWYFSTNGLHGLGQAEIIILLLCLPNEDTIPKDIFRLFITIYKDALKGKYIENLDNITFTESFLSSKDHGGFLFITPTFQKLDDLSLPSNPFLCGILIQKLEIPWAKVFPMRLMLRLGAEYKAYPAPLTSIRGRKPLFGEIGHTIMNLLVDLRNYQYTLHNIDQLLIHMEMGKSCIKIPRKKYSDVMKVLNSSNEHVISIGASFSTEADSHLVCIQNDGIYETQANSATGHPRKVTGASFVVFNGALKTSSGFLAKSSIVEDGLMVQITPETMNGLRLALREQKDFKITCGKVDAVDLREYVDICWVDAEEKGNKGVISSVDGISLQGFPSEKIKLEADFETDEKIVKCTEVFYFLKDQDLSILSTSYQFAKEIAMACSAALCPHLKTLKSNGMNKIGLRVSIDTDMVEFQAGSEGQLLPQHYLNDLDSALIPVIHGGTSNSSLPLEIELVFFIIEHLF
B4: endofin 22-mer peptide (first 22 residues of endofin) [human] / His6-HD-PTP_(Bro1-CC) (1-714), bacterially expressed [human] (parent complex)
chain 1: MDSYFKAAVSDLDKLLDDFEQN
chain 2: B2 chain 2

The variants in the first assay derive from B1. As to the kind of experiment: biosensor binding (sensogram); parent: 110; read off a plot.
As for chain 1 MDSYFKAAVSDLDKPLDDFEQN, the response is about 0 RU.

In the next assay the parent is B2. As to the kind of experiment: co-immunoprecipitation with anti-His6 antibody, quantitation of blots; three independent experiments (mean ± SD); parent: 100; read off a plot.
For chain 1 MDSYFKAAVSDLDKPLDDFEQNPDEQDYLQDVQNAYDSNHCSVSSELASSQRTSLLPKDQECVNSCASSETSYGTNESSLNEKT, the percent of parent was ~6 % binding (rel. to WT).

The next assay covers variants of B3. The assay can be described thus: anti-HA immunoprecipitation from cells, anti-endofin immunoblot, quantitation; four independent experiments (mean ± SD); parent: 100; read off a plot.
For chain 1 H125A, the percent of parent was ~23 % of WT.
Still for that read-out and setting: then chain 1 L202D, with ~9.5 % of WT; and chain 1 T145K, with ~13 % of WT.
As for chain 1 F62E, the percent of parent was ~30 % of WT.
Turning to chain 1 R198M, the percent of parent was ~59 % of WT.
chain 1 R69L: the percent of parent was ~68 % of WT.

The variants in the next assay derive from B4. As to the kind of experiment: biosensor binding (sensogram); parent: 80; read off a plot.
Consider chain 1 MDSYFKAAVSDLDKPLDDFEQN, for which the response is about 0 RU.

The record behind these values is publication PMC5501724, “Structural Basis for Specific Interaction of TGFβ Signaling Regulators SARA/Endofin with HD-PTP” (Structure(London, England:1993), 2017).
